Data reported in patent publication US20260242735A1 (UNIVERSIT T BASEL, published 2026).

How the values were obtained:
human CD33 variant Y50D = human CD33 variant Y50D (human, UniProt P20138 18-364); assay: flow cytometry, IgG on cells expressing the mutant
Method: (§1) An alanine scan on human CD33 was performed to the determine the residues on CD33 that are involved in binding to the antibodies investigated. […] Briefly, a mutation library of CD33 was created by high-throughput, site-directed mutagenesis. Each residue was individually mutated to alanine, with alanine codons mutated to serine. The mutant library was arrayed in 384-well microplates and transiently transfected into HEK293-T. Following transfection, cells were incubated with the indicated antibodies (IgG or Fab) at concentrations pre-determined using an independent immunofluorescence titration curve on wild type CD33. […] Binding of each antibody to each mutant clone was determined in duplicates. For each point, background fluorescence was subtracted from the raw data, which were then normalized to antibody reactivity with wild type CD33.
(§2) Antibodies were screened for binding to the human CD33 variants in IgG format. […] For each mutation, background fluorescence was subtracted from the raw data, which were then normalized to antibody reactivity with wild-type CD33.

human CD33 variant P48I = human CD33 variant P48I (human, UniProt P20138 18-364); assay: flow cytometry, IgG on cells expressing the mutant
Method: as §1, §2

human CD33 variant I47F = human CD33 variant I47F (human, UniProt P20138 18-364); assay: flow cytometry, IgG on cells expressing the mutant
Sequence of human CD33 variant I47F (P20138 18-364 I47F limits assumed): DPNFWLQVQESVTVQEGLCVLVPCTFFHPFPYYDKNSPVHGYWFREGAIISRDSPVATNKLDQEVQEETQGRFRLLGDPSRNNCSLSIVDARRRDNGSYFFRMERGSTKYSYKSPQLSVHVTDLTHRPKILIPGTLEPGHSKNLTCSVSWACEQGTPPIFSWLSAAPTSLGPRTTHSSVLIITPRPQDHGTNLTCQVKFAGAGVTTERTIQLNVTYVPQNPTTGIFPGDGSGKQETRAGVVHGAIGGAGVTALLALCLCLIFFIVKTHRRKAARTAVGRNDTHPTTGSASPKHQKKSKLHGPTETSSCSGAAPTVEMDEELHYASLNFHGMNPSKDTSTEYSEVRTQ
Method: as §1, §2

human CD33 variant P48D = human CD33 variant P48D (human, UniProt P20138 18-364); assay: flow cytometry, IgG on cells expressing the mutant
Sequence of human CD33 variant P48D (P20138 18-364 P48D limits assumed): as the sequence (P20138 18-364 I47F limits assumed) above, with F30I, P31D counted along it
Method: as §1, §2

human CD33 variant I47R = human CD33 variant I47R (human, UniProt P20138 18-364); assay: flow cytometry, IgG on cells expressing the mutant
Sequence of human CD33 variant I47R (P20138 18-364 I47R limits assumed): as the sequence (P20138 18-364 I47F limits assumed) above, with F30R counted along it
Method: as §1, §2

human CD33 variant R122I = human CD33 variant R122I (human, UniProt P20138 18-364); assay: flow cytometry, IgG on cells expressing the mutant
Sequence of human CD33 variant R122I (P20138 18-364 R122I limits assumed): as the sequence (P20138 18-364 I47F limits assumed) above, with F30I, R105I counted along it
Method: as §1, §2

human CD33 variant I47L = human CD33 variant I47L (human, UniProt P20138 18-364); assay: flow cytometry, IgG on cells expressing the mutant
Sequence of human CD33 variant I47L (P20138 18-364 I47L limits assumed): as the sequence (P20138 18-364 I47F limits assumed) above, with F30L counted along it
Method: as §1, §2

human CD33 variant K52D = human CD33 variant K52D (human, UniProt P20138 18-364); assay: flow cytometry, IgG on cells expressing the mutant
Sequence of human CD33 variant K52D (P20138 18-364 K52D limits assumed): as the sequence (P20138 18-364 I47F limits assumed) above, with F30I, K35D counted along it
Method: as §1, §2

human CD33 variant P48Q = human CD33 variant P48Q (human, UniProt P20138 18-364); assay: flow cytometry, IgG on cells expressing the mutant
Sequence of human CD33 variant P48Q (P20138 18-364 P48Q limits assumed): as the sequence (P20138 18-364 I47F limits assumed) above, with F30I, P31Q counted along it
Method: as §1, §2

human CD33 variant Y49P = human CD33 variant Y49P (human, UniProt P20138 18-364); assay: flow cytometry, IgG on cells expressing the mutant
Sequence of human CD33 variant Y49P (P20138 18-364 Y49P limits assumed): as the sequence (P20138 18-364 I47F limits assumed) above, with F30I, Y32P counted along it
Method: as §1, §2

human CD33 variant V56R = human CD33 variant V56R (human, UniProt P20138 18-364); assay: flow cytometry, IgG on cells expressing the mutant
Sequence of human CD33 variant V56R (P20138 18-364 V56R limits assumed): as the sequence (P20138 18-364 I47F limits assumed) above, with F30I, V39R counted along it
Method: as §1, §2

human CD33 variant R122G = human CD33 variant R122G (human, UniProt P20138 18-364); assay: flow cytometry, IgG on cells expressing the mutant
Sequence of human CD33 variant R122G (P20138 18-364 R122G limits assumed): as the sequence (P20138 18-364 I47F limits assumed) above, with F30I, R105G counted along it
Method: as §1, §2

human CD33 variant P48T = human CD33 variant P48T (human, UniProt P20138 18-364); assay: flow cytometry, IgG on cells expressing the mutant
Sequence of human CD33 variant P48T (P20138 18-364 P48T limits assumed): as the sequence (P20138 18-364 I47F limits assumed) above, with F30I, P31T counted along it
Method: as §1, §2

human CD33 variant P48V = human CD33 variant P48V (human, UniProt P20138 18-364); assay: flow cytometry, IgG on cells expressing the mutant
Sequence of human CD33 variant P48V (P20138 18-364 P48V limits assumed): as the sequence (P20138 18-364 I47F limits assumed) above, with F30I, P31V counted along it
Method: as §1, §2

human CD33 variant Y50L = human CD33 variant Y50L (human, UniProt P20138 18-364); assay: flow cytometry, IgG on cells expressing the mutant
Sequence of human CD33 variant Y50L (P20138 18-364 Y50L limits assumed): as the sequence (P20138 18-364 I47F limits assumed) above, with F30I, Y33L counted along it
Method: as §1, §2

human CD33 variant K52L = human CD33 variant K52L (human, UniProt P20138 18-364); assay: flow cytometry, IgG on cells expressing the mutant
Sequence of human CD33 variant K52L (P20138 18-364 K52L limits assumed): as the sequence (P20138 18-364 I47F limits assumed) above, with F30I, K35L counted along it
Method: as §1, §2

human CD33 variant Y49Q = human CD33 variant Y49Q (human, UniProt P20138 18-364); assay: flow cytometry, IgG on cells expressing the mutant
Sequence of human CD33 variant Y49Q (P20138 18-364 Y49Q limits assumed): as the sequence (P20138 18-364 I47F limits assumed) above, with F30I, Y32Q counted along it
Method: as §1, §2

human CD33 variant R122F = human CD33 variant R122F (human, UniProt P20138 18-364); assay: flow cytometry, IgG on cells expressing the mutant
Sequence of human CD33 variant R122F (P20138 18-364 R122F limits assumed): as the sequence (P20138 18-364 I47F limits assumed) above, with F30I, R105F counted along it
Method: as §1, §2

human CD33 variant P48L = human CD33 variant P48L (human, UniProt P20138 18-364); assay: flow cytometry, IgG on cells expressing the mutant
Sequence of human CD33 variant P48L (P20138 18-364 P48L limits assumed): as the sequence (P20138 18-364 I47F limits assumed) above, with F30I, P31L counted along it
Method: as §1, §2

human CD33 variant Y49C = human CD33 variant Y49C (human, UniProt P20138 18-364); assay: flow cytometry, IgG on cells expressing the mutant
Sequence of human CD33 variant Y49C (P20138 18-364 Y49C limits assumed): as the sequence (P20138 18-364 I47F limits assumed) above, with F30I, Y32C counted along it
Method: as §1, §2

human CD33 variant R122T = human CD33 variant R122T (human, UniProt P20138 18-364); assay: flow cytometry, IgG on cells expressing the mutant
Sequence of human CD33 variant R122T (P20138 18-364 R122T limits assumed): as the sequence (P20138 18-364 I47F limits assumed) above, with F30I, R105T counted along it
Method: as §1, §2

human CD33 variant Y49S = human CD33 variant Y49S (human, UniProt P20138 18-364); assay: flow cytometry, IgG on cells expressing the mutant
Sequence of human CD33 variant Y49S (P20138 18-364 Y49S limits assumed): as the sequence (P20138 18-364 I47F limits assumed) above, with F30I, Y32S counted along it
Method: as §1, §2

human CD33 N100A = human CD33 N100A (human, UniProt P20138 18-364); assay: flow cytometry on HEK293-T, alanine scan
Sequence of human CD33 N100A (P20138 18-364 N100A limits assumed): as the sequence (P20138 18-364 I47F limits assumed) above, with F30I, N83A counted along it
Method: as §1
(§3) Critical residues for antibody binding (outlined in dark grey) were residues whose mutations led to a binding of the test Abs of less than 20%. Additional secondary residues (outlined in light grey) were identified that led to a binding of the test Abs of between 20 and 40% as compared to the wild type CD33.

human CD33 E154A = human CD33 E154A (human, UniProt P20138 18-364); assay: flow cytometry on HEK293-T, alanine scan
Sequence of human CD33 E154A (P20138 18-364 E154A limits assumed): as the sequence (P20138 18-364 I47F limits assumed) above, with F30I, E137A counted along it
Method: as §1, §3

human CD33 P145A = human CD33 P145A (human, UniProt P20138 18-364); assay: flow cytometry on HEK293-T, alanine scan
Sequence of human CD33 P145A (P20138 18-364 P145A limits assumed): as the sequence (P20138 18-364 I47F limits assumed) above, with F30I, P128A counted along it
Method: as §1, §3

human CD33 G94A = human CD33 G94A (human, UniProt P20138 18-364); assay: flow cytometry on HEK293-T, alanine scan
Sequence of human CD33 G94A (P20138 18-364 G94A limits assumed): as the sequence (P20138 18-364 I47F limits assumed) above, with F30I, G77A counted along it
Method: as §1, §3

human CD33 G156A = human CD33 G156A (human, UniProt P20138 18-364); assay: flow cytometry on HEK293-T, alanine scan
Sequence of human CD33 G156A (P20138 18-364 G156A limits assumed): as the sequence (P20138 18-364 I47F limits assumed) above, with F30I, G139A counted along it
Method: as §1, §3

human CD33 P132A = human CD33 P132A (human, UniProt P20138 18-364); assay: flow cytometry on HEK293-T, alanine scan
Sequence of human CD33 P132A (P20138 18-364 P132A limits assumed): as the sequence (P20138 18-364 I47F limits assumed) above, with F30I, P115A counted along it
Method: as §1, §3

human CD33 R98A = human CD33 R98A (human, UniProt P20138 18-364); assay: flow cytometry on HEK293-T, alanine scan
Sequence of human CD33 R98A (P20138 18-364 R98A limits assumed): as the sequence (P20138 18-364 I47F limits assumed) above, with F30I, R81A counted along it
Method: as §1, §3

human CD33 L153A = human CD33 L153A (human, UniProt P20138 18-364); assay: flow cytometry on HEK293-T, alanine scan
Sequence of human CD33 L153A (P20138 18-364 L153A limits assumed): as the sequence (P20138 18-364 I47F limits assumed) above, with F30I, L136A counted along it
Method: as §1, §3

human CD33 S131A = human CD33 S131A (human, UniProt P20138 18-364); assay: flow cytometry on HEK293-T, alanine scan
Sequence of human CD33 S131A (P20138 18-364 S131A limits assumed): as the sequence (P20138 18-364 I47F limits assumed) above, with F30I, S114A counted along it
Method: as §1, §3

human CD33 K146A = human CD33 K146A (human, UniProt P20138 18-364); assay: flow cytometry on HEK293-T, alanine scan
Sequence of human CD33 K146A (P20138 18-364 K146A limits assumed): as the sequence (P20138 18-364 I47F limits assumed) above, with F30I, K129A counted along it
Method: as §1, §3

human CD33 variant Y49G = human CD33 variant Y49G (human, UniProt P20138 18-364); assay: flow cytometry, IgG on cells expressing the mutant
Sequence of human CD33 variant Y49G (P20138 18-364 Y49G limits assumed): as the sequence (P20138 18-364 I47F limits assumed) above, with F30I, Y32G counted along it
Method: as §1, §2

human CD33 variant I47Q = human CD33 variant I47Q (human, UniProt P20138 18-364); assay: flow cytometry, IgG on cells expressing the mutant
Sequence of human CD33 variant I47Q (P20138 18-364 I47Q limits assumed): as the sequence (P20138 18-364 I47F limits assumed) above, with F30Q counted along it
Method: as §1, §2

Sequence of human CD33 variant P48I (P20138 18-364 P48I limits assumed): as the sequence (P20138 18-364 I47F limits assumed) above, with F30I, P31I counted along it
Sequence of human CD33 variant Y50D (P20138 18-364 Y50D limits assumed): as the sequence (P20138 18-364 I47F limits assumed) above, with F30I, Y33D counted along it

| Binder | Mean % WT Binding (human CD33 variant Y50D) | Mean % WT Binding (human CD33 variant P48I) | Mean % WT Binding (human CD33 variant I47F) | Mean % WT Binding (human CD33 variant P48D) | Mean % WT Binding (human CD33 variant I47R) | Mean % WT Binding (human CD33 variant R122I) | Mean % WT Binding (human CD33 variant I47L) | Mean % WT Binding (human CD33 variant K52D) | Mean % WT Binding (human CD33 variant P48Q) | Mean % WT Binding (human CD33 variant Y49P) | Mean % WT Binding (human CD33 variant V56R) | Mean % WT Binding (human CD33 variant R122G) | Mean % WT Binding (human CD33 variant P48T) | Mean % WT Binding (human CD33 variant P48V) | Mean % WT Binding (human CD33 variant Y50L) | Mean % WT Binding (human CD33 variant K52L) | Mean % WT Binding (human CD33 variant Y49Q) | Mean % WT Binding (human CD33 variant R122F) | Mean % WT Binding (human CD33 variant P48L) | Mean % WT Binding (human CD33 variant Y49C) | further results |
| --- | --- | --- | --- | --- | --- | --- | --- | --- | --- | --- | --- | --- | --- | --- | --- | --- | --- | --- | --- | --- | --- |
| Refmab #2 (antibody, human IgG1, V domains shown, Tested in IgG format; human IgG1 Fc silent (PG-LALA)) VH: QVQLVQSGAEVKKPGSSVKVSCKASGGTFSDYAISWVRQAPGQGLEWMGRIIPILGVADYAQKFQGRVTITADKSTRTAYMELSSLRSEDTAVYYCARNWADAFDIWGQGTMVTVSS VL: DIQLTQSPSSLSASVGDRVTITCRASQGISSVLAWYQQKPGKAPKLLIYDASSLESGVPSRFSGSGSGTDFTLTISSLQPEDFATYYCQQFDSSITFGQGTKLEIK | 112 % of WT | 81.9 % of WT | 2.2 % of WT | 10.4 % of WT | 1.6 % of WT | 1.1 % of WT | 2.8 % of WT | 5.3 % of WT | 106 % of WT | 6.9 % of WT | 107 % of WT | 12.2 % of WT | 71.3 % of WT | 79.5 % of WT | 119 % of WT | 74.8 % of WT | 17.4 % of WT | 1.2 % of WT | 90.4 % of WT | 3.2 % of WT | Mean % WT Binding (human CD33 variant R122T): 1.5 % of WT; Mean % WT Binding (human CD33 variant Y49S): 87.2 % of WT |
| Refmab #3 (antibody, V domains shown, The alanine scan used IgG or Fab) VH: QVQLVQSGAEVKKPGSSVKVSCKASGYTFTDYNMHWVRQAPGQGLEWIGYIYPYNGGTGYNQKFKSKATITADESTNTAYMELSSLRSEDTAVYYCARGRPAMDYWGQGTLVTVSS VL: DIQMTQSPSSLSASVGDRVTITCRASESVDNYGISFMNWFQQKPGKAPKLLIYAASNQGSGVPSRFSGSGSGTDFTLTISSLQPDDFATYYCQQSKEVPWTFGQGTKVEIK |  |  |  |  |  |  |  |  |  |  |  |  |  |  |  |  |  |  |  |  | Mean % WT Binding (human CD33 N100A): 107 % WT binding; Mean % WT Binding (human CD33 E154A): 126 % WT binding; Mean % WT Binding (human CD33 P145A): 75.2 % WT binding; Mean % WT Binding (human CD33 G94A): 115 % WT binding; Mean % WT Binding (human CD33 G156A): 116 % WT binding; Mean % WT Binding (human CD33 P132A): 74.5 % WT binding; Mean % WT Binding (human CD33 R98A): 102 % WT binding; Mean % WT Binding (human CD33 L153A): 144 % WT binding; Mean % WT Binding (human CD33 S131A): 117 % WT binding; Mean % WT Binding (human CD33 K146A): 118 % WT binding |
| Refmab #3 (antibody, human IgG1, V domains shown, Tested in IgG format; human IgG1 Fc silent (PG-LALA)) VH: QVQLVQSGAEVKKPGSSVKVSCKASGYTFTDYNMHWVRQAPGQGLEWIGYIYPYNGGTGYNQKFKSKATITADESTNTAYMELSSLRSEDTAVYYCARGRPAMDYWGQGTLVTVSS VL: DIQMTQSPSSLSASVGDRVTITCRASESVDNYGISFMNWFQQKPGKAPKLLIYAASNQGSGVPSRFSGSGSGTDFTLTISSLQPDDFATYYCQQSKEVPWTFGQGTKVEIK | 100 % of WT | 122 % of WT | 102 % of WT | 100 % of WT | 83.2 % of WT | 112 % of WT | 102 % of WT | 101 % of WT | 101 % of WT | 92.1 % of WT | 97.7 % of WT | 114 % of WT | 102 % of WT | 113 % of WT | 106 % of WT | 94.9 % of WT | 102 % of WT | 106 % of WT | 111 % of WT | 59.2 % of WT | Mean % WT Binding (human CD33 variant Y49G): 108 % of WT; Mean % WT Binding (human CD33 variant I47Q): 106 % of WT; Mean % WT Binding (human CD33 variant R122T): 103 % of WT; Mean % WT Binding (human CD33 variant Y49S): 107 % of WT |
